Measurements published in paper PMC5354205, “Structure and assembly of scalable porous protein cages” (Nature Communications, 2017).
Values joined by “and” are separate entries in the source; they are usually repeats but may differ in a detail not shown here. Equal entries are not always repeated. Each block holds one molecule with its values, some of them ahead of it.

Key:
[1] = biological target: lumazine synthase from Aquifex aeolicus, wild-type protein (AaLS-wt), C-terminal His6-tag (Aquifex aeolicus) (UniProt O66529); assay: cryo-EM structure; single-particle reconstruction; 20 mM Tris-HCl pH 7.8, 0.2 M NaCl, 5 mM EDTA; monomer 80, 80 and 300 uM; Titan Krios 300 kV
[2] = biological target: lumazine synthase from Aquifex aeolicus, wild-type protein (AaLS-wt), C-terminal His6-tag (Aquifex aeolicus) (UniProt O66529); assay: native MS; 5 uM monomer in 150 mM ammonium acetate, 25 mM triethylammonium acetate, pH 7.8; modified qTOF, nano-electrospray, positive ion mode; subunit copy number of the cage
[3] = biological target: AaLS-neg (lumazine synthase from Aquifex aeolicus with R83E, T86E, T120E, Q123E), C-terminal His6-tag (Aquifex aeolicus) (UniProt O66529); assay: cryo-EM structure; single-particle reconstruction; 20 mM Tris-HCl pH 7.8, 0.2 M NaCl, 5 mM EDTA; monomer 80, 80 and 300 uM; Titan Krios 300 kV
[4] = biological target: the molecule itself; assay: native MS; AaLS-neg pre-incubated in low ionic strength buffer: 10 mM ammonium acetate, pH 7.8; cage dissociated into smaller capsomers
[5] = biological target: the molecule itself; assay: native MS; 5 uM monomer in 150 mM ammonium acetate, 25 mM triethylammonium acetate, pH 7.8; modified qTOF, nano-electrospray, positive ion mode; subunit copy number of the cage

stoichiometry N [1]: 60
Molecule: lumazine synthase from Aquifex aeolicus, wild-type protein (AaLS-wt), C-terminal His6-tag (from UniProt O66529 1-154) (enzyme)
stoichiometry N [2]: 60

stoichiometry N [3]: 180
Molecule: AaLS-neg (lumazine synthase from Aquifex aeolicus with R83E, T86E, T120E, Q123E), C-terminal His6-tag (from UniProt O66529 1-154)

B1: AaLS-neg lacking a His6-tag (pMG211_AaLS-neg_noHis) (other, Aquifex aeolicus, UniProt O66529 1-154, looked up)
chain: MEIYEGKLTAEGLRFGIVASRFNHALVDRLVEGAIDCIVRHGGREEDITLVRVPGSWEIPVAAGELARKEDIDAVIAIGVLIEGAEPHFDYIASEVSKGLANLSLELRKPITFGVITADELEEAIERAGTKHGNKGWEAALSAIEMANLFKSLR
notes: lumazine synthase, Aquifex aeolicus, with four lumenal residues mutated to glutamate; Made for native MS; 180-mer in 150 mM ammonium acetate; pentamers, 10-mers and 15-mers after low ionic strength; source: E. coli BL21-gold (DE3), purified (lysate heated at 85 °C, MonoQ anion exchange, SEC Sephacryl S-400); copies: 180
stoichiometry N [4]: 5 and 10 and 15
stoichiometry N [5]: 180

B2: AaLS-13 lacking a His6-tag (pMG211_AaLS-13_noHis) (other, Aquifex aeolicus, UniProt O66529 1-154, looked up)
chain: MEIYEGKLTAEGLRFGIVASRFNHALVGRLVEGAIDCIVRHGGREEDITLVCVPGSWEIPVAAGELARKEDIDAVIAIGVLIEGAEPHFDYIASEVSKGLANLSLELRKPISFGDITDDELEEAIECAGTEHGNKGWEAALSAIEMANLFKSLR
notes: lumazine synthase, Aquifex aeolicus, with the four mutations of AaLS-neg and seven more from directed evolution; Made for native MS; charge states not resolved, the copy number only estimated (240 to 420); source: E. coli BL21-gold (DE3), purified (ammonium sulphate, MonoQ anion exchange, SEC Sephacryl S-400; 3 mM DTT added)
stoichiometry N [5]: 240 to 420
